Test results published in article PMC12507909.

Molecular target: basigin (BSG), recombinant extracellular domain Met1-His205 (human)
Experiment: ELISA; Maxisorp plates coated with 5 μg/mL of each receptor candidate; serial dilutions of PvRBP1a_(158-650)LTID and LTID (48,000 pM to 187.5 pM and 4,000 pM to 1.28 pM) in blocking solution, 16 hours at 4°C; detected with a TurboID-specific antibody; one-site binding saturation model; triplicates

PvRBP1a_(158-650)LTID fusion protein (from UniProt Q5DSE1 158-650) (domain or fragment)
Kd: 2.16 nM
